{"source": "patent US20190367631A1", "about": "(Regeneron, published 2019)", "binders": {"B1": {"name": "H1H21234N-N297Q (antibody, human IgG1, V domains shown)", "VH": "QVQLQESGPGLVKPSETLSLTCTVTGGSISRNYWSWIRQPPGKGLEWIGYIYYSGSIDYNPSLKSRVTISVDTSKNQFSLKLSSMTAADTAVYYCARDRWNWKYGMDVWGQGTTVIVSS", "VL": "EIVLTQSPGTLSLSPGERATLSCRASQTVRNNYLAWYHQKPGQAPRLLIYGASSRATGIPDRFSGSGSGTDFTLTISRLEPEDFTVYYCHQYGNSPWTFGQGTKMEIKR", "notes": "human IgG1 Fc with N297Q (EU); also called H1H21234-N297Q"}, "B2": {"name": "H1H21234N-N297Q-LP3 (antibody, human IgG1, V domains shown)", "VH": "B1 VH", "VL": "B1 VL", "modifications": "steroid linker-payload LP3 clicked to azido-PEG3-amine on Q295 and Q297 (EU) of the heavy chain constant region", "notes": "antibody-drug conjugate; human IgG1 Fc with N297Q (EU); also called H1H21234N-LP3"}, "B3": {"name": "H1H21234N-N297Q-LP13 (antibody, human IgG1, V domains shown)", "VH": "B1 VH", "VL": "B1 VL", "modifications": "steroid linker-payload LP13 clicked to azido-PEG3-amine on Q295 and Q297 (EU) of the heavy chain constant region", "notes": "antibody-drug conjugate; human IgG1 Fc with N297Q (EU); also called H1H21234N-LP13"}, "B4": {"name": "H1xH29282P2 (antibody, V domains shown)", "VH": "EVQLVESGGGLVQPGGSLRLSCAASGFTFSTYAMSWVRQAPGKGLEWVSTISGRSDITYFADSVKGRFTVSRDNSKTTLYLQMNSLRAEDTAVYYCATDDDLPLDYWGQGTLVTVSS", "VL": "not shown"}}, "key": {"[1]": {"target": "T1, human MSR1 extracellular domain expressed with a N-terminal nonahistidine tag (His9-hMSR1); R&D Systems, Cat … (human, UniProt P21757 77-451)", "T1 construct": "extracellular domain; Bought reagent; also called His-hMSR1; 9xHis-hMSR1", "T1 sequence": "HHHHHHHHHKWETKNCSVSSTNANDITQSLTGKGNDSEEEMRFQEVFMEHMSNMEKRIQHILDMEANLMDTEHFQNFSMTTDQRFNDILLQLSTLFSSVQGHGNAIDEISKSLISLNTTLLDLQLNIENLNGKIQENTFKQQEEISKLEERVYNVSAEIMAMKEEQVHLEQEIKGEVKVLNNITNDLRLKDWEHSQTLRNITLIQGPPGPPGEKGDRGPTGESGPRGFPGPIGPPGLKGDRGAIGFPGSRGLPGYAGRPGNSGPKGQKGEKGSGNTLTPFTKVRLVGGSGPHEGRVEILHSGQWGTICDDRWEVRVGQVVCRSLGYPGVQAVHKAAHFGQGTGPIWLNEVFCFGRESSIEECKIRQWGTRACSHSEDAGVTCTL", "test": "SPR Biacore T200, 25 C, antibody captured by anti-human Fc, His9-hMSR1 injected", "experimental": "(§1) All binding studies were performed in 10 mM HEPES, 300 mM NaCl, 3 mM EDTA, and 0.05% v/v Surfactant Tween-20, pH 7.4 (HBS-ET) running buffer at 25° C.\n(§2) The association rate (kₐ) and dissociation rate (kd) were determined by fitting the real-time binding sensorgrams to a 1:1 binding model with mass transport limitation using Scrubber 2.0c curve-fitting software. Binding dissociation equilibrium constant (KD) and dissociative half-life (t½) were calculated from the kinetic rates as:"}, "[2]": {"target": "T1, human MSR1 extracellular domain …", "test": "SPR Biacore T200, 25 C, antibody captured by anti-human Fc, His9-hMSR1 injected", "remark": "listed apart in the source", "experimental": "as §1, §2"}, "[3]": {"target": "T1, human MSR1 extracellular domain …", "test": "SPR Biacore T200, 25 C, antibody captured by anti-human Fc, His9-hMSR1 injected; no dissociation seen, kd fixed at 1.00E-05", "experimental": "as §1, §2"}, "[4]": {"target": "T1, human MSR1 extracellular domain …", "test": "SPR Biacore T200, 25 C, antibody captured by anti-human Fc, His9-hMSR1 injected; no dissociation seen, kd fixed at 1.00E-05", "remark": "listed apart in the source", "experimental": "as §1, §2"}, "[5]": {"target": "T2, full length monkey MSR1 on HEK293.mfMSR1 cells (Macaca fascicularis, UniProt A0A2K5UWE2 1-451)", "T2 construct": "whole, on cells", "T2 sequence": "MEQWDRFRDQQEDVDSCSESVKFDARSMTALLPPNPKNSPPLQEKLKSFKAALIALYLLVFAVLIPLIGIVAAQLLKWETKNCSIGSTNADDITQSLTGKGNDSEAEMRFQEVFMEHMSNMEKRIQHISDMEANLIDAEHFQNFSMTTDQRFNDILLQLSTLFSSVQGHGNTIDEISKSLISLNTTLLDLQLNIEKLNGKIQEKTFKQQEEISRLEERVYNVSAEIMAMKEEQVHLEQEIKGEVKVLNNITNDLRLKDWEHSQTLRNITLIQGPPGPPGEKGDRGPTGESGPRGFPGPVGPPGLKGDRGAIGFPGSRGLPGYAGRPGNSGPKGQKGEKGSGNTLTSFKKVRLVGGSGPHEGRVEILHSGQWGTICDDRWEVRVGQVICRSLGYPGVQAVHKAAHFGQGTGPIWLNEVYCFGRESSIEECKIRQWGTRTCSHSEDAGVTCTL", "test": "ECL cell binding, HEK293.mfMSR1 cells, 11 nM", "experimental": "All cells were washed once with 1×PBS with Ca²⁺/Mg²⁺ and counted with a Cellometer™ Auto T4 cell counter (Nexcelom Bioscience). Approximately 1.0×10⁴ cells were seeded separately onto 96-well carbon electrode plates [MULTI-ARRAY high bind plate, Meso Scale Diagnostics] and incubated for 1 hour at 37° C. Non-specific binding sites were then blocked by 2% BSA (w/v) in PBS with Ca²⁺/Mg²⁺ for 1 hour at room temperature. THP-1 cells were pre-incubated for 0.5 hours at room temperature in sample dilution buffer with: 1) 1 mg/mL Fc receptor block reagents to block Fc gamma receptors on THP-1 cell surface [whole molecule human IgG (Jackson Immunoresearch, Cat #009-000-003) for wells being tested with anti-MSR1-mFc antibodies or 2) whole molecule mlgG (Jackson Immunoresearch, Cat #015-000-003) for wells being tested with anti-MSR1-hFc antibodies. Antibody binding on HEK293.Myc.hMSR1, HEK293.mfMSR1 and HEK293 cells was tested without Fc receptor block reagents. […] Plates were then washed to remove unbound antibodies an AquaMax2000 plate washer with a cell washing head (MDS Analytical Technologies). […] Plates were washed and developed with Read Buffer (Meso Scale Diagnostics, Cat # R92TD-2) according to manufacturer's recommended procedure and luminescent signals were recorded with a SECTOR Imager 600 (Meso Scale Diagnostics). Luminescence intensity, measured in relative light units (RLU), was recorded to indicate the binding intensity of each antibody at the range of concentrations."}, "[6]": {"target": "T3, full length human MSR1 with a C-terminal Myc tag, on HEK293.Myc.hMSR1 cells (human, UniProt P21757 1-451)", "T3 construct": "whole, on cells; stably expressed on engineered HEK293 cells; not shown: C-terminal Myc tag", "T3 sequence (looked up)": "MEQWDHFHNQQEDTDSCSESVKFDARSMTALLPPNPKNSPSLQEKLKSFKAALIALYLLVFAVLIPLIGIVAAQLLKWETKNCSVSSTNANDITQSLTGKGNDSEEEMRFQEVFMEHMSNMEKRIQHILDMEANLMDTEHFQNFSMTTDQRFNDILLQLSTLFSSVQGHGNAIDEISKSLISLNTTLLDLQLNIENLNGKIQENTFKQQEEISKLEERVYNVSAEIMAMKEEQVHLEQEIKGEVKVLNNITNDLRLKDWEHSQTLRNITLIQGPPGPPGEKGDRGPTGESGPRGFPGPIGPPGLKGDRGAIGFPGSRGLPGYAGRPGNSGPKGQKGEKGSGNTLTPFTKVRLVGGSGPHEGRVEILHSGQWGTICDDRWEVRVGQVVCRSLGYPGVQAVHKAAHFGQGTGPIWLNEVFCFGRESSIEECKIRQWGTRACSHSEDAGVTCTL", "test": "ECL cell binding, HEK293.Myc.hMSR1 cells, 11 nM"}, "[7]": {"target": "T2, full length monkey MSR1 on …", "test": "ECL cell binding, HEK293.mfMSR1 cells; section head of Table 10"}}, "note": "Where two headings read alike, the source gives them in different places."}
{"binder": "B1", "values": [{"measurement": "kon", "setting": "[1]", "result": 220000, "unit": "M⁻¹ s⁻¹"}, {"measurement": "kon", "setting": "[2]", "result": 300000, "unit": "M⁻¹ s⁻¹"}, {"measurement": "Kd", "setting": "[3]", "result": "≤ 45.4", "unit": "pM"}, {"measurement": "koff", "setting": "[3]", "result": "≤ 1e-05", "unit": "s⁻¹"}, {"measurement": "t½", "setting": "[3]", "result": "≥ 19.3", "unit": "h"}, {"measurement": "Kd", "setting": "[4]", "result": "≤ 33.3", "unit": "pM"}, {"measurement": "koff", "setting": "[4]", "result": "≤ 1e-05", "unit": "s⁻¹"}, {"measurement": "t½", "setting": "[4]", "result": "≥ 19.3", "unit": "h"}]}
{"binder": "B2", "values": [{"measurement": "kon", "setting": "[2]", "result": 417000, "unit": "M⁻¹ s⁻¹"}, {"measurement": "Kd", "setting": "[4]", "result": "≤ 24", "unit": "pM"}, {"measurement": "koff", "setting": "[4]", "result": "≤ 1e-05", "unit": "s⁻¹"}, {"measurement": "t½", "setting": "[4]", "result": "≥ 19.3", "unit": "h"}]}
{"binder": "B3", "values": [{"measurement": "kon", "setting": "[2]", "result": 400000, "unit": "M⁻¹ s⁻¹"}, {"measurement": "Kd", "setting": "[4]", "result": "≤ 25", "unit": "pM"}, {"measurement": "koff", "setting": "[4]", "result": "≤ 1e-05", "unit": "s⁻¹"}, {"measurement": "t½", "setting": "[4]", "result": "≥ 19.3", "unit": "h"}]}
{"binder": "B4", "values": [{"measurement": "ratio of binding signal (RLU) to isotype control", "setting": "[5]", "result": 1, "unit": "fold"}, {"measurement": "ratio of binding signal (RLU) to isotype control", "setting": "[6]", "result": 9, "unit": "fold"}, {"measurement": "binding result", "setting": "[7]", "result": "no binding (tested: 11 nM)"}]}
